One test deals with AchR (Homo sapiens, UniProt P02708). The experiment in a line: ELISA of screened peptide phages on AchR versus streptavidin (OD450). The class given is binding. The conditions noted are these: ELISA of selected 11-mer (L2) peptide phages on AchR, absorbance at 450 nm; Spep-2 positive control. The gist of the method: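 Reported as the ratio of AchR to streptavidin OD450, with TMB read-out after HRP anti-M13 detection. Wells coated with 5 μg/ml target overnight at 4 °C and BSA-blocked, then incubated 1 h at 30 °C with helper-rescued phage from individual plaques.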
Chain of AchR (P02708 21-457): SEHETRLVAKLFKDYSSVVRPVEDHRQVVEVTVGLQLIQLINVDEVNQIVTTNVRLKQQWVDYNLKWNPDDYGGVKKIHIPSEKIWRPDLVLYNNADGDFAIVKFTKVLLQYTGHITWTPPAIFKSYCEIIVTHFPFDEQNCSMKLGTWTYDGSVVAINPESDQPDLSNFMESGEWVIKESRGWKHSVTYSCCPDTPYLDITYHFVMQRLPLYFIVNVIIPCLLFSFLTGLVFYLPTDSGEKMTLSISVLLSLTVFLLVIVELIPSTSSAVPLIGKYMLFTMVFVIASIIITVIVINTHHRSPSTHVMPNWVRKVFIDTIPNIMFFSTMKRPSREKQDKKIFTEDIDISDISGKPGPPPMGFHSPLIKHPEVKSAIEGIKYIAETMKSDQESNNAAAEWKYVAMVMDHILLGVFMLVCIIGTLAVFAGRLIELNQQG
In general terms: ELISA stands for enzyme-linked immunosorbent assay.
With “L2-40 (PEVKVRRHSMR; AchR binding peptide) [Peptide L2-40]”, the OD was determined as 0.685. Still for that read-out and setting: then “L2-126 (AMMKYKKEFPK; AchR binding peptide) [Peptide L2-126]”, with 0.605; and “L2-52 (LPSRPKKPVPK; AchR binding peptide) [Peptide L2-52]”, with 0.624; and “L2-86 (SQWKIRKRLIR; AchR binding peptide) [Peptide L2-86]”, with 0.701. As for “L2-80 (FWDRVKRNPSK; AchR binding peptide) [Peptide L2-80]”, the OD is 0.685.

Regarding “L2-99 (CSLRARKEEWR; AchR binding peptide) [Peptide L2-99]”, the OD is listed as 0.52.

On to “L2-139 (SVLRCRKCSMK; AchR binding peptide) [Peptide L2-139]”, for which the OD came out at 0.528. On the same count and under the same terms, then “L2-70 (QLLKMRKALSR; AchR binding peptide) [Peptide L2-70]”, with 0.67.

The substance “L2-148 (DSNKVRKCSSK; AchR binding peptide) [Peptide L2-148]” came in with an OD of 0.604.

As for “L2-135 (FPGKNRKYCSR; AchR binding peptide) [Peptide L2-135]”, the OD is on record as 0.557. Same read-out and setting: the figure for “L2-105 (IEMKPRKFGVK; AchR binding peptide) [Peptide L2-105]” is 0.488; for “L2-28 (CIWKSKRSPAK; AchR binding peptide) [Peptide L2-28]” it is 0.762; for “L2-168 (GGAKNKKVVSR; AchR binding peptide) [Peptide L2-168]” it is 0.725.

The substance “L2-49 (YPFKAKRPAEK; AchR binding peptide) [Peptide L2-49]” yielded an OD of 0.734. Same read-out and setting: the figure for “L2-9 (ATCKPKRPWYK; AchR binding peptide) [Peptide L2-9]” is 0.721; for “L2-179 (GIAKSKRNAGR; AchR binding peptide) [Peptide L2-179]” it is 0.716. Still for that read-out and setting: the figure for “L2-45 (WIYRGRKDVAK; AchR binding peptide) [Peptide L2-45]” is 0.584. On the same count and under the same terms, the figure for “L2-196 (QNMRMKRFIQR; AchR binding peptide) [Peptide L2-196]” is 0.574. In turn, “L2-41 (AEVKDKKAYYK; AchR binding peptide) [Peptide L2-41]” displayed an OD of 0.568.

For “L2-14 (GMWKVRKTVFR; AchR binding peptide) [Peptide L2-14]”, the OD is listed as 0.746.

In the case of “L2-54 (HHWRFKREMPR; AchR binding peptide) [Peptide L2-54]”, the OD worked out at 0.609. Same read-out and setting: then “L2-193 (PALRMRRWCQK; AchR binding peptide) [Peptide L2-193]”, with 0.705. The same measure, in the same setting: then “L2-76 (PWVRIRKMASR; AchR binding peptide) [Peptide L2-76]”, with 0.725.

As for “L2-32 (LYMRCKKQAPR; AchR binding peptide) [Peptide L2-32]”, the OD is reported as 0.64. The substance “L2-72 (APHKWRKQEQR; AchR binding peptide) [Peptide L2-72]” came in with an OD of 0.638.

The test is the same for the next values; noted with them: ELISA of selected 14-mer (L3) peptide phages on AchR, absorbance at 450 nm; Spep-2 positive control.
“L3-158 (FDMRDRRPNARVMP; AchR binding peptide) [Peptide L3-158]” yielded an OD of 0.738.

In turn, “L3-188 (DGIRDKKCCWRDLI; AchR binding peptide) [Peptide L3-188]” gave an OD of 0.738.

As for “L3-5 (NEDRGKRPHIRVLG; AchR binding peptide) [Peptide L3-5]”, the OD was 0.82. The same measure, in the same setting: then “L3-137 (QVVRLRRGKNRGTV; AchR binding peptide) [Peptide L3-137]”, with 0.565; and “L3-95 (SISRLRKAHQKFIP; AchR binding peptide) [Peptide L3-95]”, with 0.657. Still for that read-out and setting: then “L3-187 (HGHKPRRWIYRMPM; AchR binding peptide) [Peptide L3-187]”, with 0.731. Still for that read-out and setting: the figure for “L3-148 (MMARCRRIMCRSFN; AchR binding peptide) [Peptide L3-148]” is 0.451. As for “L3-149 (PFGKFKRLENKDEC; AchR binding peptide) [Peptide L3-149]”, the OD is 0.571. Same read-out and setting: the figure for “L3-173 (QLGKQKREATREYV; AchR binding peptide) [Peptide L3-173]” is 0.775; for “L3-141 (FFYRLRRCLTRWWV; AchR binding peptide) [Peptide L3-141]” it is 0.504. The same measure, in the same setting: the figure for “L3-25 (CFQRKRKSLLRVLR; AchR binding peptide) [Peptide L3-25]” is 0.807; for “L3-196 (IEMRYRRDCSRFVN; AchR binding peptide) [Peptide L3-196]” it is 0.746. Substance “L3-8 (PICRWKRAPFKWYF; AchR binding peptide) [Peptide L3-8]” showed an OD of 0.777. On the same count and under the same terms, then “L3-161 (MAAKWKKDGMKSHY; AchR binding peptide) [Peptide L3-161]”, with 0.733; and “L3-58 (SLPKWRKGGDRVFT; AchR binding peptide) [Peptide L3-58]”, with 0.664; and “L3-100 (LEERPKKHCAKNHC; AchR binding peptide) [Peptide L3-100]”, with 0.572.

The substance “L3-56 (QISKLKRPSYRGDD; AchR binding peptide) [Peptide L3-56]” yielded an OD of 0.703.

“L3-92 (NLERTKKHGLKGYM; AchR binding peptide) [Peptide L3-92]” yielded an OD of 0.657. In turn, “L3-39 (DDVKQRKKHPRVQT; AchR binding peptide) [Peptide L3-39]” registered an OD of 0.654.

Substance “L3-140 (EHCKWKKMFDKEGE; AchR binding peptide) [Peptide L3-140]” registered an OD of 0.607. With “L3-66 (YISKSKKTAGRWFW; AchR binding peptide) [Peptide L3-66]”, the OD was 0.738. The substance “L3-63 (CPWRNRKAMIKGII; AchR binding peptide) [Peptide L3-63]” showed an OD of 0.794. Take “L3-138 (TNQRPRRETAKTIE; AchR binding peptide) [Peptide L3-138]”: the OD is on record as 0.576.

Regarding “L3-50 (VFDKFRKTENRGVI; AchR binding peptide) [Peptide L3-50]”, the OD is recorded as 0.634. The substance “L3-156 (IVPRDRKQALRWTN; AchR binding peptide) [Peptide L3-156]” came in with an OD of 0.799. The same measure, in the same setting: the figure for “L3-69 (CVNRVKKSDSKGTW; AchR binding peptide) [Peptide L3-69]” is 0.733.

The substance “L3-132 (TITRVKRASHKTPS; AchR binding peptide) [Peptide L3-132]” came in with an OD of 0.619.

The substance “L3-181 (GPCRPRRHSIRLLW; AchR binding peptide) [Peptide L3-181]” gave an OD of 0.624. Still for that read-out and setting: then “L3-180 (QGIRPRKHLQRMPN; AchR binding peptide) [Peptide L3-180]”, with 0.7; and “L3-26 (VPMKYRRCGNRQSN; AchR binding peptide) [Peptide L3-26]”, with 0.802.

Staying with this test, now noted: phage ELISA, absorbance at 450 nm, 5 μg/ml AchR; 4th and 5th round biopanning phages.
With KFRKHVCK [Peptide L1-116], the OD worked out at 0.492. The same measure, in the same setting: then RPRRSLDR [Peptide L1-17], with 0.653; and RDRKFVQK [Peptide L1-154], with 0.633. Same read-out and setting: then REKRYMAR [Peptide L1-91], with 0.826; and RSKKSLYR [Peptide L1-53], with 0.78. Still for that read-out and setting: then RFRRNFHK [Peptide L1-196], with 0.583; and KCKKMTER [Peptide L1-37], with 0.524. RPKKHQER [Peptide L1-158] returned an OD of 0.605. “GGRKKRRQRRR [Peptide L2-203, reference compound]” displayed an OD of 0.302. Same read-out and setting: then RPKRNWAK [Peptide L1-96], with 0.494. Turning to KLRKQKLR [Peptide L1-43], the OD turned out to be 0.601.

Turning to KWRREQFR [Peptide L1-76], the OD was determined as 0.588. On the same count and under the same terms, then KTKKIHSK [Peptide L1-22], with 0.732. Same read-out and setting: the figure for RCRKDTAR [Peptide L1-142] is 0.469; for RYKKVPAK [Peptide L1-118] it is 0.471; for KHKKLNQR [Peptide L1-7] it is 0.68.

Regarding KARRQEDK [Peptide L1-14], the OD was determined as 0.755. The same measure, in the same setting: the figure for KWRRELPR [Peptide L1-182] is 0.585. On the same count and under the same terms, then KKRKGSAK [Peptide L1-2], with 0.68; and KQKKTGFR [Peptide L1-55], with 0.585. On the same count and under the same terms, then RQRRNDMK [Peptide L1-9], with 0.639; and KTKKAAER [Peptide L1-178], with 0.625. Substance RTRKCVLK [Peptide L1-89] showed an OD of 0.551. Same read-out and setting: the figure for RHKKSPWK [Peptide L1-5] is 0.657. Same read-out and setting: then RIRRVSQR [Peptide L1-60], with 0.484; and KGKKYYQK [Peptide L1-105], with 0.507; and KPKREMHK [Peptide L1-79], with 0.583. Still for that read-out and setting: then RGKRQLGR [Peptide L1-3], with 0.649; and KFRRQSTR [Peptide L1-139], with 0.456. Substance RVKKAETR [Peptide L1-92] showed an OD of 0.581.

RLRRRYRR [Peptide L1-45] had an OD of 0.597. Take KTRRVDLR [Peptide L1-38]: the OD stood at 0.514. The same measure, in the same setting: the figure for RNKRDENK [Peptide L1-29] is 0.646.

RHKRQQDK [Peptide L1-186] registered an OD of 0.474.

The record behind these values is patent publication US20260000597A1 (priority 2018, published 2026).
